From publication PMC4395133 (Molecular Biology of the Cell, 2015)

B1: HIS-tagged recombinant PSPC1 (natural protein, mouse, UniProt Q8R326-1 3-523, looked up)
chain: LRGNLKQVRIEKNPARLRALESAAGESEPVAAAAMALTLAGEQAPPPAPSEEHPDEELGFTIDIKSFLKPGEKTYTQRCRLFVGNLPTDITEEDFKRLFERYGEPSEVFINRDRGFGFIRLESRTLAEIAKAELDGTILKSRPLRIRFATHGAALTVKNLSPVVSNELLEQAFSQFGPVEKAVVVVDDRGRATGKGFVEFAAKPPARKALERCGDGAFLLTTTPRPVIVEPMEQFDDEDGLPEKLMQKTQQYHKEREQPPRFAQPGTFEFEYASRWKALDEMEKQQREQVDRNIREAKEKLEAEMEAARHEHQLMLMRQDLMRRQEELRRLEELRNQELQKRKQIQLRHEEEHRRREEEMIRHREQEELRRQQEGGFKPNYMENREQEMRMGDMGPRGAINMGDAFSPAPAGTQGPPPMMGMNMNNRGTIPGPPMGPGPAMGPEGAANMGTPMIPDNGAVHNDRFPQGPPSQMGSPMGNRTGSETPQAPMSGVGPVSGGPGGFGRGSQGGNFEGPNKRRRY

What was measured:
Experiment in all cases: ELISA
[1] = target: GST-tagged full-length IMPα2 (mouse, UniProt P52293 1-529)
[2] = target: GST-IMPα6 (mouse, UniProt O35345 1-536)
[3] = target: IMPα2/GST-IMPβ1 heterodimer (tag-free IMPα2 predimerized with GST-IMPβ1) (mouse | , UniProt P52293 1-529; P70168 1-876)
[4] = target: IMPα4/GST-IMPβ1 heterodimer (tag-free IMPα4 predimerized with GST-IMPβ1) (mouse | , UniProt O35343 1-521; P70168 1-876)
[5] = target: IMPα6/GST-IMPβ1 heterodimer (tag-free IMPα6 predimerized with GST-IMPβ1) (mouse | , UniProt O35345 1-536; P70168 1-876)
[6] = target: B1

Sequence of IMPα4/GST-IMPβ1 heterodimer (tag-free IMPα4 predimerized with GST-IMPβ1) (P70168 whole entry, one chain of several): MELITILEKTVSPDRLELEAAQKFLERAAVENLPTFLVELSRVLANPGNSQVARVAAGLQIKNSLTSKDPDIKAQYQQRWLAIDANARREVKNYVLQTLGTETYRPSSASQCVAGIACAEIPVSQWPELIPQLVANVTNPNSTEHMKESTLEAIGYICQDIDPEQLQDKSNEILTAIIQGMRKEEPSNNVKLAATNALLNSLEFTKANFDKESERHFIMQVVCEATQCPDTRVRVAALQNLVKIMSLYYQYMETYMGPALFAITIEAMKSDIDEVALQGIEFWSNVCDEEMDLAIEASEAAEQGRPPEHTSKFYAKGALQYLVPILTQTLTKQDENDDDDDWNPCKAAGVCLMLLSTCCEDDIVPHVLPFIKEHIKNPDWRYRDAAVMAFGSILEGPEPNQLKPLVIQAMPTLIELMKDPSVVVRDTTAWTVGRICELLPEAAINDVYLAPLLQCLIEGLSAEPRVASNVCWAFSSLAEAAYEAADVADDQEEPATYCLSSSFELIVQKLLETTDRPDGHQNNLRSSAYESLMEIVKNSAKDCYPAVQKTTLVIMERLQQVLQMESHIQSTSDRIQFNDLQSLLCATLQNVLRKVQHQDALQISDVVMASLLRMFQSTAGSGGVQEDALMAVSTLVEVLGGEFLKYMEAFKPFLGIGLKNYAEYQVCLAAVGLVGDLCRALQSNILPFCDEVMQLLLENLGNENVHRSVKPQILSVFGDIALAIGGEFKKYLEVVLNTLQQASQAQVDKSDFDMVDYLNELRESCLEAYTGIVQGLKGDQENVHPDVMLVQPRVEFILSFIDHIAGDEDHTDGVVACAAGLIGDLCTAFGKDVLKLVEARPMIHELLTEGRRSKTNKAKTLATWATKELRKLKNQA
Sequence of IMPα2/GST-IMPβ1 heterodimer (tag-free IMPα2 predimerized with GST-IMPβ1) (P70168 whole entry, one chain of several): as above
Sequence of IMPα6/GST-IMPβ1 heterodimer (tag-free IMPα6 predimerized with GST-IMPβ1) (P70168 whole entry, chain 2 of 2): as the sequence (P70168 whole entry, one chain of several) above

Row | Kd [1] [nM] | Kd [2] [nM] | Kd [3] [nM] | Kd [4] [nM] | Kd [5] [nM] | Kd [6] [nM] | Binder
1 | 15 | 5.9 | 1.9 | 21.3 | 2.1 |  | B1
2 |  |  |  |  |  | 57.9 | GST-IMPα4 (natural protein, mouse, UniProt O35343 1-521, looked up) MADNEKLDNQRLKNFKNKGRDLETMRRQRNEVVVELRKNKRDEHLLKRRNVPQEDICEDSDIDGDYRVQNTSLEAIVQNASSDNQGIQLSAVQAARKLLSSDRNPPIDDLIKSGILPILVHCLERDDNPSLQFEAAWALTNIASGTSEQTQAVVQSNAVPLFLRLLHSPHQNVCEQAVWALGNIIGDGPQCRDYVISLGVVKPLLSFISPSIPITFLRNVTWVMVNLCRHKDPPPPMETIQEILPALCVLIHHTDVNILVDTVWALSYLTDAGNEQIQMVIDSGIVPHLVPLLSHQEVKVQTAALRAVGNIVTGTDEQTQVVLNCDALSHFPALLTHPKEKINKEAVWFLSNITAGNQQQVQAVIDANLVPMIIHLLDKGDFGTQKEAAWAISNLTISGRKDQVAYLIQQNVIPPFCNLLTVKDAQVVQVVLDGLSNILKMAEDQAETIANLIEECGGLEKIEQLQNHENEDIYKLAYEIIDQFFSSDDIDEDPSLVPESVQGGTFGFNSSTNVPTEGFQF
